{"source": "patent US12629406B2", "about": "“Alterations in endothelin receptors following hemorrhage and resuscitation by centhaquin” (MIDWESTERN UNIVERSITY, priority 2018, dated 2026)", "key": {"ETB receptors [1]": {"target": "T1, ETB receptors (Homo sapiens, UniProt P24530)", "T1 sequence (P24530 27-442)": "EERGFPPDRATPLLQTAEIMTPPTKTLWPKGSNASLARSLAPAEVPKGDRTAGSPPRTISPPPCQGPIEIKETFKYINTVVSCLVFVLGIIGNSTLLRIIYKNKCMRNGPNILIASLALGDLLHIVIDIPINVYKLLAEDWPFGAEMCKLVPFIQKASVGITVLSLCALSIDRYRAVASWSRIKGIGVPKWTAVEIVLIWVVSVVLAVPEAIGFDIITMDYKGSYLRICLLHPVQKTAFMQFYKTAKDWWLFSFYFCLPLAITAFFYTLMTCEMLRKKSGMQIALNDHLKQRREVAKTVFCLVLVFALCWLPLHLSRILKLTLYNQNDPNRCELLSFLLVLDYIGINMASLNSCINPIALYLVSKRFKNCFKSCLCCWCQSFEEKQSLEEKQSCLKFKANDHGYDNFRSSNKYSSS"}, "ETA receptors": {"target": "T2, ETA receptors (Homo sapiens, UniProt P25101)", "T2 sequence (P25101 21-427)": "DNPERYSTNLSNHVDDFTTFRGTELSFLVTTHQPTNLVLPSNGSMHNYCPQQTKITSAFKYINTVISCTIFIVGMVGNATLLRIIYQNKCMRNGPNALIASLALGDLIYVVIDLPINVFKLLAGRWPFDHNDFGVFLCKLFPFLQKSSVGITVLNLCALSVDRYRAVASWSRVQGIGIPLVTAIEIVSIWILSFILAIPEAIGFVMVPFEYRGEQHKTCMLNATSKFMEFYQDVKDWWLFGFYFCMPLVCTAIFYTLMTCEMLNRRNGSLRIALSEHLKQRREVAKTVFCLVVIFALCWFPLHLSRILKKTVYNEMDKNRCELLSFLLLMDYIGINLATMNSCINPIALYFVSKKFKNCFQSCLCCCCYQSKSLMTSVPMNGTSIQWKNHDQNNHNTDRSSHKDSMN", "settings": "cited from earlier work"}, "ETB receptors [2]": {"target": "T1, ETB receptors", "settings": "cited from earlier work"}}, "note": "*1 amine or outer side, *2 acyl side, *3 side chain or, on linkers, in order; H or OH if unused. Where no end group is shown, it is not given here. Suc = O=C(CCC(=O)[*:2])[*:1]"}
{"substance": "analog of ET-1, Suc-Asp-Glu-Glu-Ala-Val-Tyr-Phe-Ala-His-Leu-Asp-Ile-Ile-Trp; potent and specific agonist for the ETB receptors (Suc-DEEAVYFAHLDIIW) [IRL-1620, N-Succinyl-[Glu^9, Ala^11,15] endothelin 1]", "values": [{"measurement": "selectivity for ETB over ETA receptors", "setting": "ETB receptors [1]", "result": "approximately 120,000 times"}, {"measurement": "Ki", "setting": "ETA receptors", "result": 1900, "unit": "nM"}, {"measurement": "Ki", "setting": "ETB receptors [2]", "result": 0.016, "unit": "nM"}]}
